The results in this text go back to article PMC6447653.

In this data set the target is T1, AtWRI1 (Arabidopsis thaliana) (UniProt Q6X5Y6).
T1 sequence: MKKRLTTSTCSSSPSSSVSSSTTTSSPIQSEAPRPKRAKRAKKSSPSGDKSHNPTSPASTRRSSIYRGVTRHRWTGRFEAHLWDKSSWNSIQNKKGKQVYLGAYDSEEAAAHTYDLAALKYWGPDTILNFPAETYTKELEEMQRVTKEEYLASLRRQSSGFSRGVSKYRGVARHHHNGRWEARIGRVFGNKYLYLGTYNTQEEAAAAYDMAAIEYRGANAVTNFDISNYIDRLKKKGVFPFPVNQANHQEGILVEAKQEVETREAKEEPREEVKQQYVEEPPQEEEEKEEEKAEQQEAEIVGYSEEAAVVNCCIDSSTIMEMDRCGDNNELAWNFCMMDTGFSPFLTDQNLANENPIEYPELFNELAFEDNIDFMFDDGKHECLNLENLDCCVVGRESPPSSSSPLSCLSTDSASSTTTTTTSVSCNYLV
Kind of data set: EMSA. Particulars: fEMSA: 150 mM KCl, 0.1 mM DTT, 10 mM Tris pH 7.4, 150 ng poly(dI-dC), 50 ng Cy5 probe, 10 ul, 30 min, room temperature. (In general: In EMSA bound probe runs differently from free probe, usually more slowly.)

For the sequence “TAAAAGAGTTGGGTTTCTTCGTAAGCATCGAAATCAGATTTCTTTACCAAAGAAAAAATAAAGAAAAGAAAAATATAGCAAGTACACTGCATTTCAACACTCTCATATCTCTCCTTCCTACTTCCTCGGTTTCATCGTCCACTGTCTCAA (double strand) [BCCP2up (-2/-151)]”, the binding result is recorded as “binds”.
